From article PMC12702981, “Population pharmacokinetics of efpeglenatide in individuals with obesity and with type 2 diabetes” (Frontiers in Pharmacology, 2025)
Marks after values point to notes of the source that are not given here.

Tests used:
[1] = ref Geiser et al., 2016; cited from earlier work
Description: This finding is aligned with the pharmacokinetic properties of Fc-fusion proteins, in which neonatal Fc receptor (FcRn)-mediated recycling limits proteolytic catabolism and prolongs systemic residence ([Richter and Jacobsen, 2014]).

[2] = human, in vivo
Description: The population PK analysis was performed based on pooled data from one phase 1 and five phase 2 studies of efpeglenatide. […] Dosing regimens ranged from once weekly (QW) to every other week (Q2W) and once monthly (QM) subcutaneous administration.
The pooled dataset comprised six clinical studies (five studies in patients with T2DM and one study in obesity). A total of 3,596 plasma efpeglenatide concentration measurement were collected from 498 subjects across six clinical studies at prespecified time points.
All samples were analyzed at certified laboratories using validated analytical method. Serum concentrations of efpeglenatide were quantified using a validated Enzyme-Linked Immunosorbent Assay (ELISA) method.
For the PK analysis, 3,316 post-dose plasma concentrations above the lower limit of quantification (LLOQ) were used in the model estimation. All pre-dose concentrations before the first administration were excluded from the dataset. Post-dose samples below the limit of quantification (BLQ) were treated as missing (i.e., not included in the analysis). In total, 117 pre-dose samples (3.25%) and 153 post-dose samples (4.0%) were BLQ.
The base PK model evaluation was begun with a one-compartment disposition model with first-order elimination, with additional refinement to better characterize the absorption phase. […] The first one of the two divided doses was described as the first order absorption after bolus doses into depot compartment, capturing the first peak during the absorption phase. The second part of the dose was introduced to describe the second peak with time delay during absorption phase, which was described using a transit compartment model ([Savic et al., 2007]). […] After the absorption model was established, various compartment models were evaluated.
The transit compartment model describes the delay in absorption as the sequential passage of the drug through a chain of transit compartments, each connected by a first-order transit rate constant (Ktr). The number of transit compartments (n) and the mean transit time (MTT) were estimated from the data, with Ktr calculated as (n+1)/MTT. Drug exiting the final transit compartment entered the absorption compartment and was transferred to the central compartment via first-order absorption, as described by Equations 1–3.
The amount of drug administered subcutaneously (Asc) in the depot, central compartment (Ac) and peripheral compartment (Ap) were described using the following differential Equations 4–6: dAsc/dt=Dose·BIOA1+Dose·BIOA2·Ktr·t^n·e^−Ktr·t/2π·n^n+0.5·e^−n−ka·Asc (4) dAc/dt=ka·Asc−Ac/Vc·CL−Ac/Vc·Q+Ap/Vp·Q (5) dAp/dt=Ac/Vc·Q−Ap/Vp·Q (6)
To confine the estimated fraction values to the range between 0 and 1 and to allow implementation of interindividual variability, a logit transformation was applied. BIOA1 and BIOA2 represent the fractions of the administered dose entering the depot compartment via the bolus administration route and the delayed absorption route, respectively. The transformation was defined as shown in Equation 7 ([Adedokun et al., 2020]): BIOA1=e^BIOF/1+e^BIOF,BIOA2=1/1+e^BIOF (7) where BIOF is an unbounded parameter ( −∞∼∞ ) representing the logit-transformed value of BIOA1, and BIOA2 = 1-BIOA1
The population PK modeling analysis was performed using NONMEM version 7.5 (ICON Development Solutions, Hanover, MD, United States). The first-order conditional estimation method with interaction (FOCEI) was used to approximate the marginal likelihood and facilitate estimation of population model parameters.

[3] = ref Yoon et al., 2020; cited from earlier work
Description: Gastrointestinal (GI) adverse events are the most frequent class-related tolerability issues with GLP-1 receptor agonists, and stepwise dose-escalation regimens are commonly used to mitigate these events ([U.S. Food and Drug Administration, 2014]; [Davies et al., 2022]). […] Efpeglenatide has shown an adverse event profile consistent with this drug class ([Yoon et al., 2020]; [Gerstein et al., 2021]). The model-derived effective half- ...

[4] = patients with T2DM; ref Gerstein et al., 2021; cited from earlier work

Substance | CL, clearance [1] [L/h] | BIOA1, dose fraction absorbed via the first-order pathway [2] | BIOA2, dose fraction absorbed via the transit-compartment pathway [2] | BIOF, logit parameter expressing the fraction of dose absorbed via the first-order and transit pathway [2] | CL/F in T2DM, clearance for patients with T2DM [2] | CL/F in obesity, clearance for obesity [2] | Covariate effect (θ) of body weight on CL/F [2] | Covariate effect (θ) of body weight on ka [2] | Expected time to steady state [2] | Higher clearance (CL/F) in T2DM than in obesity [2] [%] | MTT, mean transit time [2] | Model-derived effective half-life [2] [h] | N, number of transit compartments [2] | VSS [2] | Q/F, inter-compartment clearance ([2]; sc) | VC/F, volume of the central compartment ([2]; sc) | VP/F, volume of the peripheral compartment ([2]; sc) | ka, absorption rate constant ([2]; sc) | Clinically reported half-life [3] [h] | Weight loss [4]
dulaglutide: another Fc-fusion GLP-1 receptor agonist | 0.059 | – | – | – | – | – | – | – | – | – | – | – | – | – | – | – | – | – | – | –
efpeglenatide | – | 0.248 ^a | 0.752 ^b | −1.11 [27.59] | 0.044 [1.50] L/h | 0.032 [1.79] L/h | 0.964 [6.75] | −0.927 [14.24] | ≈ 4 weeks | 38 | 2.680 [13.47] hour | 140 to 170 | 5.520 [22.28] | ≈ 6.8 L | 0.073 [11.14] L/h | 2.80 [7.39] L | 3.96 [6.57] L | 0.006 [4.33] 1/h | 134 to 180 | 6%–7%
